Data on one substance can be found in patent US20020115596.

The test system of data set [1] is Succinyl-(4-trans-L-Hyp)SSChgQ-SI-DOX (3′).
For data set [2], the system named is PEG(2)-(4-trans-L-Hyp)ASChgQ-SL-DOX (3′).
Data set [3] concerns Glutaryl-(4-trans-L-Hyp)ASChgQ-SV-DOX (3′).
Data set [4] deals with Succinyl-(4-trans-L-Hyp)ASChgQ-SThi-DOX (3′).
The test system of data set [5] is PEG(2)-(4-trans-L-Hyp)ASChgQ-SThi-DOX (3′).
Data set [6] has as its system Glutaryl-(4-trans-L-Hyp)ASChgQ-SI-DOX (3′).
The test system of data set [7] is Ac-(4-trans-L-Hyp)ASChgQ-SLacid.
In data set [8] the test system is [N-Glutaryl-(4-trans-L-Hyp)]-Ala-Ser-Chg-Gln-Ser-Leu-Dox.
For data set [9], the system named is Succinyl-(4-trans-L-Hyp)ASChgQ-SV-DOX (3′).
Data set [10] deals with Succinyl-(4-trans-L-Hyp)ASChgQ-SAbu-DOX (3′).
The test system of data set [11] is Ac-(4-trans-L-Hyp)ASChgQ-StBUAla-DOX (3′).
Data set [12] deals with Glutaryl-(4-trans-L-Hyp)SSChgQ-SI-DOX (3′).
For data set [13], the system named is [N-Ac-(4-trans-L-Hyp)]-Ala-Ser-Chg-Gln-Ser-Leu-Dox.
Data set [14] concerns PEG(2)-(4-trans-L-Hyp)SSChgQ-SL-DOX (3′).
In data set [15] the test system is (4-trans-L-Hyp)-Ala-Ser-Chg-Gln-Ser-Leu-Dox.
The subject of data set [16] is Succinyl-(4-trans-L-Hyp)ASChgQ-SI-DOX (3′).
Data set [17] has as its system Succinyl-3,4-(diOH)PASChgQ-SL-DOX (3′).
Data set [18] deals with Ac-(4-trans-L-Hyp)ASChgQ-SThi-acid.
The subject of data set [19] is PEG(4)-(4-trans-L-Hyp)-SSChgQ-SL-DOX (3′).
In data set [20] the test system is Malonyl-(4-trans-L-Hyp)ASChgQ-SL-DOX (3′).
The subject of data set [21] is Glutaryl-(4-trans-L-Hyp)SSChgQ-SL-DOX (3′).

For the substance free prostate specific antigen (PSA), the “time required for 50% cleavage of the oligopeptide” value (from here on “time required for 50% cleavage”) in data set [1], in data set [3], in data set [4], in data set [5], in data set [6] and in [8] was 50% cleavage occurred in less than 2 hours for those conjugates throughout. Further, the “time required for 50% cleavage” value in [9], in [10], in data set [12], in [14], in data set [15] and in data set [16] was 50% cleavage occurred in less than 2 hours for those conjugates throughout. In addition, the “time required for 50% cleavage” value in data set [17], in [19], in data set [20] and in data set [21] was 50% cleavage occurred in less than 2 hours for those conjugates throughout. The Time to 50% Substrate Cleavage by PSA in data set [2] was found to be 20 min; with Ac-PASChgQ-SL-acid it was 150 min; in the data set with Ac-PSSChgQ-SV-acid it was 120 min; in [7], 75 min; in [11], 25 min; in [13], 20 min. Moreover, the Time to 50% Substrate Cleavage by PSA in data set [18] was determined as 20 min.
